Numbering of substitutions follows the chain as printed.
B1: 368_G03 (antibody, V domains shown)
VH: EVQLLESGGGLVQPGGSLRLSCAASGFTFSSYSMNWVRQAPGKGLEWVSGINYNSGYTSYADSVKGRFTISRDNSKNTLYLQMNSLRAEDTAVYYCARGATWHDTALDYWGQGTLVTVSS
VL: DIQMTQSPSSLSASVGDRVTITCRASQSILSYLNWYQQKPGKAPKLVIYAATSRASGVPSRFSGSGSGTDFTLTISSLQPEDFATYYCQQSYDTPLTFGGGTKVEIK
notes: VH/VL only
B2: 370_H06 (antibody, V domains shown)
VH: B1 VH with S30D, S31D, S49A, G50N, S55G, S59G, A106H
VL: B1 VL with S31T, V47L, D93E
notes: VH/VL only
B3: 370_B08 (antibody, V domains shown)
VH: B1 VH with S31D, S49A, G50N, S55G, S59G, A106H
VL: B1 VL with V47L, T52S, R54L, A55Q, T94S
notes: VH/VL only
B4: 371_E05 (antibody, V domains shown)
VH: B1 VH with S49A, S55G, A106H
VL: B1 VL with L30I, D93S, T94S
notes: VH/VL only
B5: 370_C10 (antibody, V domains shown)
VH: B1 VH with S30D, G50N, T58K, S59G, A106H
VL: B1 VL with L30V, L33V, V47L, A51T, D93S, T94S
notes: VH/VL only
B6: 371_C07 (antibody, V domains shown)
VH: B1 VH with S30D, S33G, G50N, S55G, S59G
VL: B1 VL with V47L, R54L
notes: VH/VL only
B7: 371_B01 (antibody, V domains shown)
VH: B1 VH with S30D, G50N, S59G, A106H
VL: B1 VL with L33V, V47L, R54L, T94L
notes: VH/VL only
B8: 370_F01 (antibody, V domains shown)
VH: B1 VH with S33G, G50N, S55G, A106H
VL: B1 VL with L30V, V47L, T94S
notes: VH/VL only
B9: 370_H04 (antibody, V domains shown)
VH: B1 VH with G50N, S55G, S59G, A106H
VL: B1 VL with L33V, V47L, T94L
notes: VH/VL only
B10: 370_D09 (antibody, V domains shown)
VH: B1 VH with S31D, A106H
VL: B1 VL with L30V, S31T
notes: VH/VL only
B11: 370_G08 (antibody, V domains shown)
VH: B1 VH with S31D, S49A, S55G, S59G, A106H
VL: B1 VL with S31T, D93E, T94S
notes: VH/VL only
B12: 370_E04 (antibody, V domains shown)
VH: B1 VH with S49A, G50N, S55G, T58K, S59G, A106H
VL: B1 VL with S31T, V47L, A51V, R54L, A55H, D93E
notes: VH/VL only
B13: 368_H06 (antibody, V domains shown)
VH: B1 VH with S30D, S33G, N35H, S49A, G50N, S55G, T58K, A106H
VL: B1 VL with S31T, L33V, V47L, A51T, T94N
notes: VH/VL only
B14: 369_F09 (antibody, V domains shown)
VH: B1 VH with S33G, N35H, S49A, S55G, A106H
VL: B1 VL with S31T, L33V, V47L, T94S
notes: VH/VL only
B15: 369_H12 (antibody, V domains shown)
VH: B1 VH with S49A, S55G, T58K, A106H
VL: B1 VL with L30V, S31T, L33V, T94S
notes: VH/VL only
B16: 369_A11 (antibody, V domains shown)
VH: B1 VH with S30D, S33G, S49A, G50N, S55G, T58K, S59G, A106H
VL: B1 VL with L30I, S31T, A55H, D93E, T94S
notes: VH/VL only
B17: 370_D03 (antibody, V domains shown)
VH: B1 VH with S49A, G50S, S55G, A106H
VL: B1 VL with L30I, S31T, V47L, T94L
notes: VH/VL only
B18: 369_H02 (antibody, V domains shown)
VH: B1 VH with S30D, S31D, G50N, S55G, T58K, A106H
VL: B1 VL with L30I, V47L, T94S
notes: VH/VL only
B19: 369_E05 (antibody, V domains shown)
VH: B1 VH with S31D, S33G, S49A, G50N, S55G, T58K, A106H
VL: B1 VL with S31T, V47L, R54L, D93E
notes: VH/VL only
B20: 370_F12 (antibody, V domains shown)
VH: B1 VH with S31D, S49A, G50N, S55G, S59G, A106H
VL: B1 VL with V47L, T52S, R54L, A55Q, T94S
notes: VH/VL only
B21: 369_H08 (antibody, V domains shown)
VH: B1 VH with S49A, T58K, A106H
VL: B1 VL with L33V, R54L, D93E, T94S
notes: VH/VL only
B22: 370_F02 (antibody, V domains shown)
VH: B1 VH with S30D, S33G, S49A, G50N, S55G, S59G, A106H
VL: B1 VL with V47L, A51V, A55H, T94S
notes: VH/VL only
B23: 370_C06 (antibody, V domains shown)
VH: B1 VH with S49A, G50N, S55G, T58K, A106H
VL: B1 VL with S31T, L33V, V47L, T52S, R54L, A55Q, D93S
notes: VH/VL only
B24: 369_C12 (antibody, V domains shown)
VH: B1 VH with S33G, S49A, G50N, S55G, T58K, S59G, A106H
VL: B1 VL with S31T, V47L, A55H
notes: VH/VL only
B25: 368_H11 (antibody, V domains shown)
VH: B1 VH with S30D, S33G, N35H, S49A, G50S, S55G, A106H
VL: B1 VL with V47L, Y92D
notes: VH/VL only
B26: 369_G05 (antibody, V domains shown)
VH: B1 VH with S49A, S55G, A106H
VL: B1 VL with L30V, V47L, A55H, T94S
notes: VH/VL only
B27: 370_E05 (antibody, V domains shown)
VH: B1 VH with S33G, G50N, S55G, T58K, S59G, A106H
VL: B1 VL with L30S, S31T, A51V, D93N, T94S
notes: VH/VL only
B28: 371_E09 (antibody, V domains shown)
VH: B1 VH with S31D, A106H
VL: B1 VL with S31T, V47L, D93N, T94S
notes: VH/VL only
B29: 369_D08 (antibody, V domains shown)
VH: B1 VH with S31D, S49A, G50S, S55G, T58K, S59G, A106H
VL: B1 VL with S31T, V47L
notes: VH/VL only
B30: 369_E08 (antibody, V domains shown)
VH: B1 VH with S49A, G50S, S59G, A106H
VL: B1 VL with S31T, L33V, V47L, T94S
notes: VH/VL only
B31: 370_C07 (antibody, V domains shown)
VH: B1 VH with S49A, G50N, S55G, T58K, A106H
VL: B1 VL with V47L, A55H, D93E, T94S
notes: VH/VL only
B32: 371_C06 (antibody, V domains shown)
VH: B1 VH with G50S, S55G, A106H
VL: B1 VL with L30S, V47L, A51V, T94L
notes: VH/VL only
B33: 369_F05 (antibody, V domains shown)
VH: B1 VH with S55G, T58K, A106H
VL: B1 VL with L30S, V47L, T52S, R54L, A55Q, S91G, T94S
notes: VH/VL only
B34: 368_G10 (antibody, V domains shown)
VH: B1 VH with N35H, G50S, S55G, A106H
VL: B1 VL with L30V, L33V
notes: VH/VL only
B35: 371_E08 (antibody, V domains shown)
VH: B1 VH with G50N, T58K, A106H
VL: B1 VL with L30V, L33V, A55H, T94L
notes: VH/VL only

Each binder was assayed against T1, Human ACVR2A (human, UniProt P27037 20-135, limits assumed) (assay: ELISA).
T1 construct: also called activin receptor, type II A
Experimental: (§1) The binding of ACVR2A-specific monoclonal antibodies to human ACVR2A, mouse ACVR2A, biotinylated goat anti-human kappa light chain (positive control) and human Fc (negative control) were determined by ELISA.
Note: test concentration or dose not given here.

T1 sequence (P27037 20-135 limits assumed): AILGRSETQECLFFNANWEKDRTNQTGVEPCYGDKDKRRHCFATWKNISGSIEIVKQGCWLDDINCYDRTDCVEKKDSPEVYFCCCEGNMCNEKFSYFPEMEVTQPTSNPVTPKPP

optical density [OD]	Binder
2.73	B1
3.22	B2
3.13	B3
2.99	B4
1.3	B5
1.39	B6
3.26	B7
3	B8
3.48	B9
2.92	B10
3.21	B11
2.57	B12
2.35	B13
3.23	B14
3.46	B15
2.64	B16
3.13	B17
3.09	B18

optical density [OD]	Binder
1.41	B19
3.55	B20
3.16	B21
2.68	B22
3.14	B23
3.43	B24
1.95	B25
3.04	B26
2.58	B27
2.08	B28
2.94	B29
1.03	B30
3.35	B31
2.49	B32
0.796	B33
2.06	B34
2.11	B35

Each binder was assayed against Mouse ACVR2A (mouse, UniProt P27038 20-135, limits assumed) (assay: ELISA).
Experimental: as §1

Mouse ACVR2A, sequence (P27038 20-135 limits assumed): as the sequence (P27037 20-135 limits assumed) above, with K20R, V73I counted along it

optical density [OD]	Binder
2.75	B1
3.39	B2
3.25	B3
3.18	B4
1.38	B5
1.45	B6
3.27	B7
3.14	B8
3.56	B9
2.53	B10
3.33	B11
2.72	B12
2.65	B13
3.38	B14
3.42	B15
2.77	B16
3.25	B17
3.29	B18

optical density [OD]	Binder
1.64	B19
3.57	B20
3.23	B21
2.89	B22
3.41	B23
3.45	B24
2.13	B25
3.28	B26
2.77	B27
2.28	B28
3.13	B29
1.23	B30
3.37	B31
3.01	B32
0.931	B33
2.28	B34
2.27	B35

The binders below were run against T2, Goat anti-Human Kappa (assay: ELISA; positive control).
T2 construct: Positive control; also called biotinylated goat anti-human kappa light chain
In short: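 Monoclonal antibodies were first applied to human or mouse ACVR2A, alongside biotinylated goat anti-human kappa light chain (positive control) and human Fc (negative control); binding was then determined by ELISA.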

optical density [OD]	Binder
3.39	B1
3.51	B2
3.35	B3
3.45	B4
3.35	B5
3.36	B6
3.58	B7
3.67	B8
3.62	B9
3.48	B10
3.56	B11
3.4	B12
3.61	B13
3.6	B14
3.65	B15
3.29	B16
3.58	B17
3.57	B18

optical density [OD]	Binder
1.9	B19
3.64	B20
3.56	B21
3.63	B22
3.55	B23
3.74	B24
3.51	B25
3.31	B26
3.52	B27
3.15	B28
3.06	B29
1.12	B30
3.3	B31
3.44	B32
3.46	B33
3.45	B34
2.64	B35
